B1: JIP3-GFP [not stated] / TMEM55B (in HEK293 wild type cells, Figure 4) [not stated] (parent complex)
chain 1: MMEIQMDEGGGVVVYQDDYCSGSVMSERVSGLAGSIYREFERLIHCYDEEVVKELMPLVVNVLENLDSVLSENQEHEVELELLREDNEQLLTQYEREKALRRQAEEKFIEFEDALEQEKKELQIQVEHYEFQTRQLELKAKNYADQISRLEERESEMKKEYNALHQRHTEMIQTYVEHIERSKMQQVGGNSQTESSLPGRRKERPTSLNVFPLADGTVRAQIGGKLVPAGDHWHLSDLGQLQSSSSYQCPQDEMSESGQSSAAATPSTTGTKSNTPTSSVPSAAVTPLNESLQPLGDYGVGSKNSKRAREKRDSRNMEVQVTQEMRNVSIGMGSSDEWSDVQDIIDSTPELDMCPETRLDRTGSSPTQGIVNKAFGINTDSLYHELSTAGSEVIGDVDEGADLLGEFSVRDDFFGMGKEVGNLLLENSQLLETKNALNVVKNDLIAKVDQLSGEQEVLRGELEAAKQAKVKLENRIKELEEELKRVKSEAIIARREPKEEAEDVSSYLCTESDKIPMAQRRRFTRVEMARVLMERNQYKERLMELQEAVRWTEMIRASREHPSVQEKKKSTIWQFFSRLFSSSSSPPPAKRPYPSVNIHYKSPTTAGFSQRRNHAMCPISAGSRPLEFFPDDDCTSSARREQKREQYRQVREHVRNDDGRLQACGWSLPAKYKQLSPNGGQEDTRMKNVPVPVYCRPLVEKDPTMKLWCAAGVNLSGWRPNEDDAGNGVKPAPGRDPLTCDREGDGEPKSAHTSPEKKKAKELPEMDATSSRVWILTSTLTTSKVVIIDANQPGTVVDQFTVCNAHVLCISSIPAASDSDYPPGEMFLDSDVNPEDPGADGVLAGITLVGCATRCNVPRSNCSSRGDTPVLDKGQGEVATIANGKVNPSQSTEEATEATEVPDPGPSEPETATLRPGPLTEHVFTDPAPTPSSGPQPGSENGPEPDSSSTRPEPEPSGDPTGAGSSAAPTMWLGAQNGWLYVHSAVANWKKCLHSIKLKDSVLSLVHVKGRVLVALADGTLAIFHRGEDGQWDLSNYHLMDLGHPHHSIRCMAVVYDRVWCGYKNKVHVIQPKTMQIEKSFDAHPRRESQVRQLAWIGDGVWVSIRLDSTLRLYHAHTHQHLQDVDIEPYVSKMLGTGKLGFSFVRITALLVAGSRLWVGTGNGVVISIPLTETVVLHRGQLLGLRANKTSPTSGEGARPGGIIHVYGDDSSDRAASSFIPYCSMAQAQLCFHGHRDAVKFFVSVPGNVLATLNGSVLDSPAEGPGPAAPASEVEGQKLRNVLVLSGGEGYIDFRIGDGEDDETEEGAGDMSQVKPVLSKAERSHIIVWQVSYTPE
chain 2: not shown

Variants of: B1
Assay: co-immunoprecipitation (GFP IP, quantitative immunoblot); HEK293 wild type cells, lysed 24h post transfection; parent: 31; read off a plot

response [TMEM55B/GFP] | Variant
~10 | chain 1 A895L, chain 1 E897K
